# According to patent US20190315855 (published 2019):
# T1: mouse DLL4 ECD (mouse, UniProt Q9JI71)
# T1 chain: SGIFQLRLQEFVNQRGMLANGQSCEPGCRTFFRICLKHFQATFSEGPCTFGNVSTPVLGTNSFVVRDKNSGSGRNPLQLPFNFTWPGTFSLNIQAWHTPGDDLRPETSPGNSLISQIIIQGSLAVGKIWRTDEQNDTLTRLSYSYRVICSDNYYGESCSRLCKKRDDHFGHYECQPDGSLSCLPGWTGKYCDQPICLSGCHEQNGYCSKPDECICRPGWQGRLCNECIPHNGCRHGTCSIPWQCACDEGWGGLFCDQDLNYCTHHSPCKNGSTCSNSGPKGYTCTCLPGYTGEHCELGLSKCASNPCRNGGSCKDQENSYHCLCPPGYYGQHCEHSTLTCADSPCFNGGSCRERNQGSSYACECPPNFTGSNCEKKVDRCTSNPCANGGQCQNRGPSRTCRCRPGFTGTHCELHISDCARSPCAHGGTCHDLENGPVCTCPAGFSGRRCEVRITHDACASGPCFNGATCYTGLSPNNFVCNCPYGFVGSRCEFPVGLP
# T2: mouse DLL4 (cell surface) (mouse, UniProt Q9JI71)
# T2 chain: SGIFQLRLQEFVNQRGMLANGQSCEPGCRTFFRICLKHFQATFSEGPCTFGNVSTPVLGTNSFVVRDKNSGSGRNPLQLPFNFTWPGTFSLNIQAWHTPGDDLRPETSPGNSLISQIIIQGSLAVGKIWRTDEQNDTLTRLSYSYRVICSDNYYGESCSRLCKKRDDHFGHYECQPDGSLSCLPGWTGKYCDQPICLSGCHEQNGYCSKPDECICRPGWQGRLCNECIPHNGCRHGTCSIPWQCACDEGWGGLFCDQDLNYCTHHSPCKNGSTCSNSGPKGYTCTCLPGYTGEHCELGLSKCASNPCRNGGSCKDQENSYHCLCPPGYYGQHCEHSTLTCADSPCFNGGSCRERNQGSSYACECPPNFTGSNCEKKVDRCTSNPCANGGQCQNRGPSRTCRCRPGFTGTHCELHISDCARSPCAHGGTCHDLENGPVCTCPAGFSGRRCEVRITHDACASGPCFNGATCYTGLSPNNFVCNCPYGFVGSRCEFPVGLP
# Biological target: human DLL4 (cell surface) (human)
# Assay: FACS
# Sequence of human DLL4 (cell surface) (human) (chain, as listed by the source): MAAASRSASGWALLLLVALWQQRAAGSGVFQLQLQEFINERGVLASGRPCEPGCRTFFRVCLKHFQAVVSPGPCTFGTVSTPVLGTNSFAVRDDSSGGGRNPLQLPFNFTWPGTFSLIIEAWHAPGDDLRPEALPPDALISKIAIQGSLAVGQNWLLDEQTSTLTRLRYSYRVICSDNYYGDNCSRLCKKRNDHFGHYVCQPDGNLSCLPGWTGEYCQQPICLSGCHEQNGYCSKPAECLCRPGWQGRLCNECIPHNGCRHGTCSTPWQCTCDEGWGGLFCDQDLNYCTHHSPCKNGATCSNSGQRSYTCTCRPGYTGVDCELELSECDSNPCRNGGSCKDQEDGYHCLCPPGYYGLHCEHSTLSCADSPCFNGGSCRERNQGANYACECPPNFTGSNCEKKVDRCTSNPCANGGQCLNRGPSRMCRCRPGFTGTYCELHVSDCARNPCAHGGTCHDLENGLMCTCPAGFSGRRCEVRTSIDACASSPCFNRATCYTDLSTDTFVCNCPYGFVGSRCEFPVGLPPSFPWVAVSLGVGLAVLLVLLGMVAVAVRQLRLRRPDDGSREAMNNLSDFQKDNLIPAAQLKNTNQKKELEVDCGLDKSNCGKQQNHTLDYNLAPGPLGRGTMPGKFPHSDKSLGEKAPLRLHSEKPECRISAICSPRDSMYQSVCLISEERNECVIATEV
row,EC50,Binder
1,> 50.9 nM,"14A11 rat mAb (antibody, V domains shown) VH: EVQLQQSGPELAKPGSSVKISCKASGYTFTNSYISWIKQTTGQGLEYVGYINTGSGGADYNEKFKGKATLTVDKSSRTAFMQLSSLTPGDSAVYYCAKSILLGSTCYFDYWGQGVLVTVSS VL: NTVLTQSPALAVSLGQRVTISCKASRSVSSPMYSYIYWYQQKPGQQPKLLIYRASTLASGVPARFSGSGSGTDFTLNIDPVEADDIATYFCQQSWSDPFTFGSGTKLEIKR"

# Biological target: T1, mouse DLL4 ECD
# Assay: SPR
row,Kd,Binder
1,16 nM,"h1A11.A12 (antibody, V domains shown) VH: EVQLVESGGGLVQPGGSLRLSCAASGFTFSNFPMAWVRQAPGKGLEWVATISSSDGTTYYRDSVKGRFTISRDNAKNSLYLQMNSLRAEDTAVYYCARGYYNSPFAYWGQGTLVTVSS VL: DIQMTQSPSSLSASVGDRVTITCRASQDIYYNLAWYQQKPGKSPKLLIFDTSSLADGVPSRFSGSGSGTDFTLTISSLQPEDFATYFCQQYDWYPPTFGQGTKLEIK"
2,13 nM,"h1A11.A7 (antibody, V domains shown) VH: EVQLVESGGGLVQPGGSLRLSCAASGFTFSNFPMAWVRQAPGKGLEWVATISSSDGTTYYRDSVKGRFTISRDNAKNSLYLQMNSLRAEDTAVYYCARGYYNSPFAYWGQGTLVTVSS VL: DIQMTQSPSSLSASVGDRVTITCRASQDIYINLAWYQQKPGKAPKLLIFDTSDLADGVPSRFSGSGSGTDFTLTISSLQPEDFATYYCQQYDYYPPTFGQGTKLEIK"

# Biological target: human DLL4 ECD (human)
# Assay: competition ELISA
# Sequence of human DLL4 ECD (human) (chain, as listed by the source): as the sequence (chain, as listed by the source) above
row,Binder,IC50
1,"h38H12.5 (antibody, V domains shown) VH: EVQLVESGGGVVQPGRSLRLSCAASGFTFSNYGMYWIRQAPGKGLEWVAFISHGGGITYYRDSVKGRFTISRDNSKSTLYLQMNSLRAEDTAVYHCAALNWELGIDYWGQGTMVTVSS VL: DIQMTQSPSSLSASVGDRVTITCRASEDIYSNLAWYQQKPGKAPKLLIYAANRLQDGVPSRFSGSGSGTDFTLTISSLQPEDFATYYCLQGSKFPLTFGQGTKLEIKR",14.8 nM
2,"h38H12.7 (antibody, V domains shown) VH: EVQLVESGGGVVQPGRSLRLSCAASGFTFSNYGMYWIRQAPGKGLEWVAFISHGGGITYYRDSVKGRFTISRDNSKSTLYLQMNSLRAEDTAVYHCAALNWELGIDYWGQGTMVTVSS VL: DIQMTQSPSSLSASVGDRVTITCRASEDIYSNLAWYQQKPGKAPKLLIYAANRLQDGVPSRFSGSGSGTDYTLTISSLQPEDFATYYCLQGSKFPLTFGQGTKLEIKR",12.5 nM
3,"h38H12.6 (antibody, V domains shown) VH: EVQLVESGGGVVQPGRSLRLSCAASGFTFSNYGMYWIRQAPGKGLEWVAFISHGGGITYYRDSVKGRFTISRDNSKSTLYLQMNSLRAEDTAVYHCAALNWELGIDYWGQGTMVTVSS VL: DIQMTQSPSSLSASVGDRVTITCRASEDIYSNLAWYQKKPGKSPKLLIYAANRLQDGVPSRFSGSGSGTDYTLTISSLQPEDFATYFCLQGSKFPLTFGQGTKLEIKR",27 nM

# Second part, the binder after the results:
row,IC50,Binder
1,4.16 nM,"h38H12.9 (antibody, V domains shown) VH: EVQLVESGGGVVQPGRSLRLSCAASGFTFSNYGMYWVRQAPGKGLEWVAFISHGGGITYYRDSVKGRFTISRDNSKNTLYLQMNSLRAEDTAVYYCAALNWELGIDYWGQGTMVTVSS VL: DIQMTQSPSSLSASVGDRVTITCRASEDIYSNLAWYQQKPGKAPKLLIYAANRLQDGVPSRFSGSGSGTDFTLTISSLQPEDFATYYCLQGSKFPLTFGQGTKLEIKR"
2,5.84 nM,"h38H12.14 (antibody, V domains shown) VH: EVQLVESGGGLVQPGGSLRLSCAASGFTFSNYGMYWIRQAPGKGLEWVAFISHGGGITYYRDSVKGRFTISRDNSKSTLYLQMNSLRAEDTAVYHCAALNWELGIDYWGQGTMVTVSS VL: DIQMTQSPSSLSASVGDRVTITCRASEDIYSNLAWYQKKPGKSPKLLIYAANRLQDGVPSRFSGSGSGTDYTLTISSLQPEDFATYFCLQGSKFPLTFGQGTKLEIKR"
3,8.31 nM,"h38H12.8 (antibody, V domains shown) VH: EVQLVESGGGVVQPGRSLRLSCAASGFTFSNYGMYWIRQAPGKGLEWVAFISHGGGITYYRDSVKGRFTISRDNSKSTLYLQMNSLRAEDTAVYHCAALNWELGIDYWGQGTMVTVSS VL: EIVMTQSPATLSVSPGERATLSCRASEDIYSNLAWYQKKPGQSPRLLIYAANRLQDGVPARFSGSGSGTEYTLTISSLQSEDFAVYFCLQGSKFPLTFGQGTKLEIKR"
4,5.71 nM,"h38H12.15 (antibody, V domains shown) VH: EVQLVESGGGLVQPGGSLRLSCAASGFTFSNYGMYWIRQAPGKGLEWVAFISHGGGITYYRDSVKGRFTISRDNSKSTLYLQMNSLRAEDTAVYHCAALNWELGIDYWGQGTMVTVSS VL: DIQMTQSPSSLSASVGDRVTITCRASEDIYSNLAWYQQKPGKAPKLLIYAANRLQDGVPSRFSGSGSGTDYTLTISSLQPEDFATYYCLQGSKFPLTFGQGTKLEIKR"
5,3.8 nM,"h38H12.11 (antibody, V domains shown) VH: EVQLVESGGGVVQPGRSLRLSCAASGFTFSNYGMYWVRQAPGKGLEWVAFISHGGGITYYRDSVKGRFTISRDNSKNTLYLQMNSLRAEDTAVYYCAALNWELGIDYWGQGTMVTVSS VL: DIQMTQSPSSLSASVGDRVTITCRASEDIYSNLAWYQQKPGKAPKLLIYAANRLQDGVPSRFSGSGSGTDYTLTISSLQPEDFATYYCLQGSKFPLTFGQGTKLEIKR"
6,5.29 nM,"h38H12.13 (antibody, V domains shown) VH: EVQLVESGGGLVQPGGSLRLSCAASGFTFSNYGMYWIRQAPGKGLEWVAFISHGGGITYYRDSVKGRFTISRDNSKSTLYLQMNSLRAEDTAVYHCAALNWELGIDYWGQGTMVTVSS VL: DIQMTQSPSSLSASVGDRVTITCRASEDIYSNLAWYQQKPGKAPKLLIYAANRLQDGVPSRFSGSGSGTDFTLTISSLQPEDFATYYCLQGSKFPLTFGQGTKLEIKR"
7,3.23 nM,"h38H12.12 (antibody, V domains shown) VH: EVQLVESGGGVVQPGRSLRLSCAASGFTFSNYGMYWVRQAPGKGLEWVAFISHGGGITYYRDSVKGRFTISRDNSKNTLYLQMNSLRAEDTAVYYCAALNWELGIDYWGQGTMVTVSS VL: EIVMTQSPATLSVSPGERATLSCRASEDIYSNLAWYQKKPGQSPRLLIYAANRLQDGVPARFSGSGSGTEYTLTISSLQSEDFAVYFCLQGSKFPLTFGQGTKLEIKR"
8,3.9 nM,"h38H12.10 (antibody, V domains shown) VH: EVQLVESGGGVVQPGRSLRLSCAASGFTFSNYGMYWVRQAPGKGLEWVAFISHGGGITYYRDSVKGRFTISRDNSKNTLYLQMNSLRAEDTAVYYCAALNWELGIDYWGQGTMVTVSS VL: DIQMTQSPSSLSASVGDRVTITCRASEDIYSNLAWYQKKPGKSPKLLIYAANRLQDGVPSRFSGSGSGTDYTLTISSLQPEDFATYFCLQGSKFPLTFGQGTKLEIKR"
9,3.77 nM,"h38H12.16 (antibody, V domains shown) VH: EVQLVESGGGLVQPGGSLRLSCAASGFTFSNYGMYWIRQAPGKGLEWVAFISHGGGITYYRDSVKGRFTISRDNSKSTLYLQMNSLRAEDTAVYHCAALNWELGIDYWGQGTMVTVSS VL: EIVMTQSPATLSVSPGERATLSCRASEDIYSNLAWYQKKPGQSPRLLIYAANRLQDGVPARFSGSGSGTEYTLTISSLQSEDFAVYFCLQGSKFPLTFGQGTKLEIKR"

# Biological target: T2, mouse DLL4 (cell surface)
# Assay: FACS
row,EC50,Binder
1,> 50.9 nM,"14G1 rat mAb (antibody, V domains shown) VH: EVQLQQSGAELAKPGSSVKISCKASGYTFTNYDISWIKQTNGQGLEYLGYINTGSGGIYSNEKFKGKATLTVDKSSNTAFMQLSSLTPEDTAVYYCVREGNNFDHWGQGVKVTVSS VL: DTVMTQSPASMSTSVGERVTVNCKASQSVGTIVAWFQQKPGQSPKRLIYLATYRHTGVPDRFIGSGFGRDFTLTISNVEAEDLAVYYCLQYGSRPFTFGAGTKLEIKR"
